Assays:
[1] = tested on: primary human hepatocytes; assay: LDL receptor protein in primary human hepatocytes; type: cell-based; conditions: 50 ng/mL, 24 hours
Protocol: Cryopreserved plateable human hepatocytes, metabolism qualified from multiple normal human donors, were obtained from CellzDirect (Invitrogen, NC). The cells were seeded at 1×10^6 cells/well in a 6-well collagen coated plate according to the manufacturer's instructions (CellzDirect, Invitrogen, NC). The cells were incubated at 37° C. with 5% CO2 for 4 hours to allow the cells to adhere. The plating media was replaced and the cells incubated for 16 hours prior to human resistin 50 ng/mL treatment for 24 hours.
To determine if the above findings in immortalized HepG2 cells are relevant to humans, primary human hepatocytes […] (Invitrogen) were treated with human resistin at the optimum 50 ng/mL dose for 24 hours. […] While the magnitude of the inhibitory effect of human resistin on LDL receptor protein expression was not as large as with HepG2 cells, this was expected as primary hepatocytes are not as metabolically active as cultured hepatoma HepG2 hepatocytes.

[2] = tested on: primary mouse hepatocytes from PCSK9 knockout mice; assay: LDL receptor protein in PCSK9 knockout mouse hepatocytes; type: cell-based; conditions: 50 ng/mL, 24 hours
Protocol: (§1) Animal ethics approval was received for the mouse protocols to follow. Primary mouse hepatocytes from PCSK9 knockout mice (C57Bl/6 background) or their wildtype littermates were isolated by perfusing the liver via the hepatic portal vein with a 5 mM EGTA in Leffert's Buffer (10 mM Hepes; 3 mM KCl, 0.13 M NaCl, 1 mM NaH2PO4, 10 mM D-glucose) followed by a 0.3 mg/ml collagenase in 0.0279% CaCl2. Cells were then filtered through a 70 uM nylon strainer and centrifuged at 760 rpm for 5 min. The cells were then passed through a CHRM gradient (Invitrogen, NC). Viability of cells ranged from 80 to 95%. […] Mouse LDL receptor and PCSK9 protein in cell lysates were measured via immunoblotting, as described above, using the following primary antibodies: mouse LDL receptor (abcam, MA), mouse PCSK9 (abcam, MA) and mouse GAPDH (Cell Signaling, MA). […]
(§2) To then more directly quantify the role of PCSK9 in the resistin mediated reduction in hepatocyte LDL receptor levels, hepatocytes isolated and cultured from wild-type mice were treated with resistin, and compared to resistin-treated hepatocytes from PCSK9 knockout mice.

[3] = tested on: primary mouse hepatocytes from wildtype littermates; assay: LDL receptor and PCSK9 protein in wild-type mouse hepatocytes; type: cell-based; conditions: wild-type mice hepatocytes, 50 ng/mL, 24 hours
Protocol: as §1, §2

[4] = tested on: HepG2 cells; assay: insulin signaling pathway protein expression, Western blot; type: cell-based, human; conditions: 50 ng/mL, 24 hours
Text: Horseradish peroxidase-conjugated antibodies (BioRad, Hercules, Calif.) were used as secondary antibodies.
Another important regulator of hepatocyte apoB/VLDL assembly and stability is the intracellular insulin signaling pathway.

[5] = tested on: HepG2 cells; assay: real-time quantitative PCR of mRNA expression; type: cell-based, human
Protocol: Total RNA was isolated from cell lysates (RNeasy Mini Kit, Qiagen, Germantown, Md.) and used as a template for cDNA synthesis (QuantiTech Reverse Transcription Kit, Qiagen, Germantown, Md.). Quantitative real-time PCR was performed using an Applied Biosystems 7300 Real Time PCR system (Carlsbad, Calif.) according to the manufacturer's instructions and with the SYBR green master kit (Qiagen, Germantown, Md.). Primers for the real-time PCR internal control gene cyclophilin A (sense, 5′-[…]-3′ (SEQ ID NO:3); antisense, 5′-[…]-3′ (SEQ ID NO:4)) were synthesized (IDT, Coralville, Iowa). Primers for succinate degydrogenase (SDH) (another real-time PCR internal control gene), apoB, microsomal triglyceride transfer protein (MTP), Srebp1, Srebp2, acetyl-coA carboxylase (ACC), HMG-coA reductase, HMG-coA synthase, squalene synthase (SS), the LDL receptor, PCSK9, fatty acid synthase (FAS), […] (SCD), DGAT1 and DGAT2 were purchased (proprietary sequences not available) (Qiagen, Germantown, Md.). The values reported for each mRNA were corrected to the cyclophilin A and SDH mRNA values.
Total RNA was isolated from cell lysates (RNeasy Mini Kit, Qiagen, MD) and used as a template for cDNA synthesis (QuantiTech Reverse Transcription Kit, Qiagen, MD). Quantitative real-time PCR was performed using an Applied Biosystems 7300 Real-Time PCR system (Carlsbad, Calif.) according to the manufacturer's instructions and with the SYBR green kit (Qiagen, MD). Primers for the real-time PCR internal control gene cyclophilin A, as identified in Example 1, were synthesized (IDT, IA). Primers for succinate dehydrogenase (SDH) (another real-time PCR internal control gene), SREBP2, HMG-CoA reductase, the LDL receptor and PCSK9 were purchased (proprietary sequences not available) (Qiagen, MD). The values reported for each mRNA were corrected to the cyclophilin A and SDH mRNA values.

[6] = tested on: HepG2 cells; assay: immunoblotting for LDL receptor and PCSK9 in HepG2 cells; conditions: 24 hours
Protocol: Cells were propagated in 10% FBS-containing DMEM supplemented with 1% penicillin-streptomycin and 0.06% L-glutamine (584 mg/L) at 37° C., 5% CO2. During treatment experiments with human recombinant resistin (Calbiochem, UK) and/or lovastatin (Sigma, Mo.), the media was changed to 1% FBS-containing DMEM. All of the experiments to follow were performed at least three times and representative results are shown. Cells were stimulated with resistin at various doses (0, 10, 25, 50, and 100 ng/mL) for 24 hours or with a single dose at 50 ng/mL resistin. In other experiments, the microsomal triglyceride transfer protein (MTP) inhibitor, CP-346086, was administered at 1.3 nM, either alone or together with resistin (50 ng/mL) for 24 hours. Lovastatin was administered at 1 to 5 μM for 24 hours to stimulate the cells, either alone or in combination with resistin (50 ng/mL). Unless otherwise indicated, all experiments were performed in triplicate in three independent experiments.
Cell lysates collected with RIPA buffer (50 mM Tris, 150 mM sodium chloride, 1% NP-40, 12 mM sodium deoxycholate, 3.5 mM SDS, pH 7.4) and protease inhibitor cocktail (Roche Diagnostics, QC) were analyzed for human LDL receptor and PCSK9 as previously described (Rashid et al. Proc Nall Acad Sci U S A 2005; 102:5374-9). Equivalent amounts of total protein, determined by Bradford reaction was subjected to sodium dodecyl sulfate polyacrylamide gel electrophoresis (SDS-PAGE), transferred onto nitrocellulose membranes (BioRad, CA) and immunoblotted using antibodies against the LDL receptor (Fitzgerald International, CA) and PCSK9 (Cayman Chemicals, MI). Horseradish peroxidase-conjugated antibodies (BioRad, CA) were used as secondary antibodies. Immunoreactive bands were visualized with a chemiluminescence kit (PerkinElmer Life Sciences, MA). The blots were exposed to KODAK Biomax films, and the signal was quantified by densitometry using Quantity One version 4.6.7. software (Bio Rad, CA).
All of the experiments were performed at least three times and representative results are shown. Dose-response experiments were performed in HepG2 cells with 0, 10, 25, 50, 75 and 100 ng/mL of human resistin for 24 hours. Western blots were then performed on cell lysates to detect the cellular expression of LDL receptor protein.

B1: human resistin: recombinant lyophilized purified human resistin (Calbiochem); cysteine-rich cytokine, single 12 kDa band (protein)
chain: KTLCSMEEAINERIQEVAGSLIFRAISSIGLECQSVTSRGDLATCPRGFAVTGCTCGSACGSWDVRAETTCHCQCAGMDWTGARCCRVQP
LDL receptor protein versus untreated control cells [1]: significantly reduced | decline in LDL receptor expression compared to untreated hepatocytes [2]: 15% | PCSK9 levels [3]: increased PCSK9 levels significantly | decrease in LDL receptor protein levels compared with untreated hepatocytes [3]: 40% | decrease in expression of IRS-2, ERK, phosphorylated ERK, Akt and serine and threonine phosphorylated Akt [4]: 20-30% | apoB mRNA expression ([5]; 50 ng/mL, 24 hours): significant increase | expression of DGAT1 ([5]; 50 ng/mL, 24 hours): increased to smaller but significant extents | expression of SCD ([5]; 50 ng/mL, 24 hours): increased to smaller but significant extents | expression of the LDL RECEPTOR gene ([5]; 50 ng/mL, 24 hours): increased | expression of the PCSK9 gene ([5]; 50 ng/mL, 24 hours): increased | increase in the expression of ACC ([5]; 50 ng/mL, 24 hours): 3 fold | increase in the expression of HMG-CoA REDUCTASE ([5]; 50 ng/mL, 24 hours): 2 fold | increase in the expression of HMG-CoA SYNTHASE ([5]; 50 ng/mL, 24 hours): 2 fold | increase in the expression of SQUALENE SYNTHASE ([5]; 50 ng/mL, 24 hours): 2 fold | mRNA expression of SREBP1 ([5]; 50 ng/mL, 24 hours): significantly increased | mRNA expression of SREBP2 ([5]; 50 ng/mL, 24 hours): significantly increased | apoB mRNA expression ([5]; 100 ng/mL dose, after dose-response increase from 0 to 50 ng/mL): decreased | reduction of LDL receptor protein expression ([6]; 25 ng/mL resistin): 30% | decrease in cellular LDL receptor protein expression ([6]; 50 ng/mL resistin): 40% | decrease in cellular LDL receptor protein expression ([6]; 75 ng/mL resistin): 40% | increase in cellular PCSK9 protein ([6]; resistin 50 ng/mL, with lovastatin 5 μM): 50%

Source: patent publication US20130252987A1, “METHOD OF REGULATING PLASMA LIPOPROTEINS” (MCMASTER UNIVERSITY, priority 2010, published 2013)
